T1: Mouse 4-1BB extracellular region recombinant protein (his-tag) (mouse, UniProt P20334 24-187)
T1 construct: extracellular domain; also called Mouse4-1BB, his-tag; not shown: his-tag
T1 sequence (looked up): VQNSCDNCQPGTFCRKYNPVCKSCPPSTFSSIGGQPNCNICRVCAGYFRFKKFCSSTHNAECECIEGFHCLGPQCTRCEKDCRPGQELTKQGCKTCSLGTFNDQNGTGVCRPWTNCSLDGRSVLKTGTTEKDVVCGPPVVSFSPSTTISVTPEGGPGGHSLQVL

B1: 137-7 VHH-hFc recombinant antibody (Fc fusion)
chain: QVQLVESGGGLVQPGGSLRLSCAASGFTLDSYAIAWFRQAPGKEREGVSCITSSGGSTNYADSVKGRFTISRDGAKNTVYLQLNSLKPEDTAIYYCAAFHRATCVILGEYDYWGQGTQVTVSS
notes: VHH fragment inserted into vector pFclG with human IgG1 Fc tag, expressed in HEK293F; also called CD137-7; not shown: human IgG1 Fc tag of the eukaryotic expression vector pFclG
B2: 137-16 VHH-hFc recombinant antibody (Fc fusion)
chain: EVQLVESGGGLVQAGASLTLSCVISGRTFSSYAMGWYRQAPGKERAFVGTITWNNDIIYSDSVKGRFTISTDDGKNTMYLQMNNLKPEDTAVYYCAAYSVPYGDFCTLNYDLMDYWGKGTLVTVSS
notes: VHH fragment inserted into vector pFclG with human IgG1 Fc tag, expressed in HEK293F; Preparation had non-specific bands, purity >70%; also called CD137-16; not shown: human IgG1 Fc tag of the eukaryotic expression vector pFclG
B3: 137-12 VHH-hFc recombinant antibody (Fc fusion)
chain: QVQLVESGGGLVHPGGSLRLSCAASGFTLDDSAIGWFRQAPGKEREGVSCRSRSGYMTKYADSVKGRFTISRYNANNTMYLQMNSLKPEDTAVYYCATTRRGYCSGYETKGVDYWGQGIQVTVSS
notes: VHH fragment inserted into vector pFclG with human IgG1 Fc tag, expressed in HEK293F; not shown: human IgG1 Fc tag of the eukaryotic expression vector pFclG
B4: 137-39 VHH-hFc recombinant antibody (Fc fusion)
chain: QVQLVESGGGLVHVGESLTLSCVISGGSSNLYGIGWYRQAPGQERKLVAVLHNEHTTKYLDSVKGRFFVSGDNAKNTLYLHMNNVKVEDTAVYYCNSASGTLAGTGYFASVGPWGQGTLVTVSS
notes: VHH fragment inserted into vector pFclG with human IgG1 Fc tag, expressed in HEK293F; Preparation had non-specific bands, purity about 30%; not shown: human IgG1 Fc tag of the eukaryotic expression vector pFclG
B5: 137-36 VHH-hFc recombinant antibody (Fc fusion)
chain: QVQLVESGGGLVQTGGSLTLSCVASGRRFEAYTIGWLRQAPGDLREGVGCIFGGTTFTGYDDSVKGRFTISRDTAKNTVYLRMNNLTSEDTATYYCAAEGRPGQIKGQHGCLTPSWYNYKGQGTQVTVSS
notes: as for B3

Several values for one entry are separate records, joined by “and”; a condition that tells them apart may be missing. Equal values may be shown once.

One assay addresses T1, Mouse 4-1BB extracellular region …. In words: ELISA, coated mouse 4-1BB his-tag 200 ng/well.
On to B1, for which the binding result was “no binding (tested: 0.014-10 µg/mL)”.

Another assay concerns the target T2, Human 4-1BB extracellular domain recombinant protein (his-tag) (human, UniProt Q07011 24-186).
T2 construct: extracellular domain; also called Human4-1BB, his-tag; human 4-1BB extracellular region recombinant protein; not shown: his-tag
Kind of assay: ELISA, coated human 4-1BB-his 200 ng/well. (ELISA stands for enzyme-linked immunosorbent assay.)
As usually defined, the EC50 is the midpoint of the concentration-response curve. In the case of B1, the concentration for a half-maximal effect (EC50) was 0.09 µg/mL and 1.12 nM.
For the molecule B2, the EC50 is 0.536 µg/mL and 6.7 nM.
For B3, the EC50 is 6.3e-05 µg/mL and 0.001 nM.
As to B4, the EC50 was 6.04 µg/mL and 75.6 nM.
In the case of B5, the EC50 is 0.001 µg/mL and 0.011 nM.

The target of a further assay is T3, Monkey 4-1BB extracellular region recombinant protein (his-tag) (monkey).
T3 construct: extracellular domain; also called Monkey4-1BB, his-tag
In words: ELISA, coated monkey 4-1BB-his 200 ng/well.
For the molecule B1, the EC50 is 0.17 µg/mL and 2.12 nM.
Still for that read-out and setting: in the case of B2 it was 0.234 µg/mL and 2.93 nM.
Still for that read-out and setting: in the case of B3 it was 10.3 µg/mL and 128 nM; in that of B4, 0.001 µg/mL and 0.012 nM; in that of B5, 51.9 µg/mL and 649 nM.

The target in another assay is T2, Human 4-1BB extracellular domain …. Kind of assay: ELISA, coated human 4-1BB-his 200 ng/well; antibody 0.12 µg/ml.
For B1, the “absorbance at 450 nm” value worked out at 2.37.
Still for that read-out and setting: in the case of B2 it was 0.704.
The same measure, in the same setting: in the case of B3 it was 0.334.
Regarding B4, the “absorbance at 450 nm” value worked out at 0.461.
Take B5: the “absorbance at 450 nm” value stood at 0.383.

The target is the same in the next assay. Kind of assay: ELISA, coated human 4-1BB-his 200 ng/well; antibody 0.37 µg/ml.
Regarding B2, the “absorbance at 450 nm” value is 1.58.
The same measure, in the same setting: in the case of B3 it was 0.341; in that of B4, 0.458; in that of B5, 0.347.

The next assay shares this target. Kind of assay: ELISA, coated human 4-1BB-his 200 ng/well; antibody 1.11 µg/ml.
On to B2, for which the “absorbance at 450 nm” value came out at 3.52.
On to B3, for which the “absorbance at 450 nm” value was found to be 0.376.
Regarding B4, the “absorbance at 450 nm” value was found to be 0.62.
The same measure, in the same setting: next, B5: 0.414.

The next assay has the same target. Kind of assay: ELISA, coated human 4-1BB-his 200 ng/well; antibody 10.0 µg/ml.
Take B3: the “absorbance at 450 nm” value was 0.432.
Same read-out and setting: in the case of B4 it was 1.45; in that of B5, 0.48.

Another assay has the same target. Kind of assay: ELISA, coated human 4-1BB-his 200 ng/well; antibody 3.33 µg/ml.
For B3, the “absorbance at 450 nm” value was 0.433.
Regarding B4, the “absorbance at 450 nm” value worked out at 1.
For the molecule B5, the “absorbance at 450 nm” value was 0.454.

A further assay concerns the target T1, Mouse 4-1BB extracellular region …. Kind of assay: ELISA, coated mouse 4-1BB-his 200 ng/well; antibody 0.12 µg/ml.
For the molecule B1, the “absorbance at 450 nm” value is 0.166.

For the next assay the target is unchanged. In words: ELISA, coated mouse 4-1BB-his 200 ng/well; antibody 0.37 µg/ml.
On to B1, for which the “absorbance at 450 nm” value worked out at 0.201.

A further assay has the same target. Kind of assay: ELISA, coated mouse 4-1BB-his 200 ng/well; antibody 1.11 µg/ml.
For B1, the “absorbance at 450 nm” value stood at 0.191.

A further assay has the same target. Kind of assay: ELISA, coated mouse 4-1BB-his 200 ng/well; antibody 10.0 µg/ml.
Regarding B1, the “absorbance at 450 nm” value was determined as 0.284.

A further assay shares this target. Kind of assay: ELISA, coated mouse 4-1BB-his 200 ng/well; antibody 3.33 µg/ml.
Take B1: the “absorbance at 450 nm” value was found to be 0.218.

In another assay the target is T2, Human 4-1BB extracellular domain …. In words: ELISA, coated human 4-1BB-his 200 ng/well; antibody 0.014 µg/ml.
B1: the “absorbance at 450 nm” value came out at 0.589.
On the same count and under the same terms, in the case of B2 it was 0.41.
Same read-out and setting: in the case of B3 it was 0.395.
On the same count and under the same terms, next, B4: 0.521; B5: 0.413.

A further assay has the same target. Kind of assay: ELISA, coated human 4-1BB-his 200 ng/well; antibody 0.041 µg/ml.
As for B1, the “absorbance at 450 nm” value turned out to be 0.963.
Still for that read-out and setting: in the case of B2 it was 0.419.
Same read-out and setting: next, B3: 0.355; B4: 0.477.
In the case of B5, the “absorbance at 450 nm” value was determined as 0.372.

The target in the next assay is T3, Monkey 4-1BB extracellular region …. In words: ELISA, coated monkey 4-1BB-his 200 ng/well; antibody 0.12 µg/ml.
With B1, the “absorbance at 450 nm” value stood at 1.54.
Turning to B2, the “absorbance at 450 nm” value is 1.17.
Same read-out and setting: in the case of B3 it was 0.376.
The same measure, in the same setting: in the case of B4 it was 0.306; in that of B5, 0.372.

The target is the same in a further assay. In words: ELISA, coated monkey 4-1BB-his 200 ng/well; antibody 0.37 µg/ml.
In the case of B1, the “absorbance at 450 nm” value was 3.19.
B2: the “absorbance at 450 nm” value amounted to 2.79.
On the same count and under the same terms, next, B3: 0.343; B4: 0.251.
On the same count and under the same terms, next, B5: 0.276.

Another assay shares this target. Kind of assay: ELISA, coated monkey 4-1BB-his 200 ng/well; antibody 1.11 µg/ml.
Regarding B3, the “absorbance at 450 nm” value is 0.423.
On the same count and under the same terms, next, B4: 0.286; B5: 0.456.

For the next assay the target is unchanged. In words: ELISA, coated monkey 4-1BB-his 200 ng/well; antibody 10.0 µg/ml.
Turning to B3, the “absorbance at 450 nm” value came to 1.07.
Still for that read-out and setting: next, B4: 0.405; B5: 1.91.

The target is the same in a further assay. In words: ELISA, coated monkey 4-1BB-his 200 ng/well; antibody 3.33 µg/ml.
B3: the “absorbance at 450 nm” value was determined as 0.679.
For B4, the “absorbance at 450 nm” value was determined as 0.342.
Same read-out and setting: in the case of B5 it was 0.879.

A further assay addresses T1, Mouse 4-1BB extracellular region …. Kind of assay: ELISA, coated mouse 4-1BB-his 200 ng/well; antibody 0.014 µg/ml.
On to B1, for which the “absorbance at 450 nm” value amounted to 0.187.

A further assay shares this target. In words: ELISA, coated mouse 4-1BB-his 200 ng/well; antibody 0.041 µg/ml.
As for B1, the “absorbance at 450 nm” value is 0.18.

A further assay addresses T3, Monkey 4-1BB extracellular region …. Kind of assay: ELISA, coated monkey 4-1BB-his 200 ng/well; antibody 0.014 µg/ml.
B1: the “absorbance at 450 nm” value was 0.581.
On the same count and under the same terms, in the case of B2 it was 0.447; in that of B3, 0.385; in that of B4, 0.292.
B5: the “absorbance at 450 nm” value was 0.333.

Another assay shares this target. Kind of assay: ELISA, coated monkey 4-1BB-his 200 ng/well; antibody 0.041 µg/ml.
Take B1: the “absorbance at 450 nm” value turned out to be 0.794.
For B2, the “absorbance at 450 nm” value stood at 0.581.
For B3, the “absorbance at 450 nm” value came out at 0.37.
The same measure, in the same setting: in the case of B4 it was 0.387; in that of B5, 0.354.

For the next assay, the target named is T2, Human 4-1BB extracellular domain …. Kind of assay: ELISA, coated human 4-1BB-his 200 ng/well; antibody 0 µg/ml (background well).
On to B1, for which the “absorbance at 450 nm” value is 0.081.
As to B2, the “absorbance at 450 nm” value came to 0.096.
For the molecule B3, the “absorbance at 450 nm” value amounted to 0.087.
Still for that read-out and setting: next, B4: 0.128; B5: 0.112.

A further assay addresses T1, Mouse 4-1BB extracellular region …. In words: ELISA, coated mouse 4-1BB-his 200 ng/well; antibody 0 µg/ml (background well).
In the case of B1, the “absorbance at 450 nm” value turned out to be 0.209.

For the next assay, the target named is T3, Monkey 4-1BB extracellular region …. In words: ELISA, coated monkey 4-1BB-his 200 ng/well; antibody 0 µg/ml (background well).
As to B1, the “absorbance at 450 nm” value was determined as 0.055.
Consider B2, for which the “absorbance at 450 nm” value was 0.043.
On the same count and under the same terms, next, B3: 0.058; B4: 0.041.
The same measure, in the same setting: next, B5: 0.041.

The target of the next assay is T2, Human 4-1BB extracellular domain …. Kind of assay: SPR (Biacore 8K), VHH-hFc captured on Protein A chip, human 4-1BB-his as analyte, 25°C, 1:1 fit.
For orientation: Kd means the constant that tells how readily two partners part at equilibrium. Usually koff stands for a measure of how fast the partners let go of each other. The term kon denotes a measure of how fast the partners come together. B1: the Kd turned out to be 38 nM, the koff was determined as 0.0298 s⁻¹ and the kon stood at 783000 M⁻¹ s⁻¹.
On to B2, for which the Kd is 33.3 nM, the off-rate constant (koff) turned out to be 0.00274 s⁻¹ and the kon was determined as 82200 M⁻¹ s⁻¹.

The values above are taken from patent publication EP4592317A1 (ABlink Biotech Co., Ltd., dated 2025).
